From patent US20250121076A1, “POLYPEPTIDE DRUG CONJUGATE HAVING NOVEL STRUCTURE AND APPLICATION THEREOF” (MEDSHINE DISCOVERY INC., priority 2021, published 2025)
Where a name gives a salt, the structure may show the parent alone. Starred links: 1 amine or outer side, 2 acyl side, 3 side chain; linkers in the order of their positions; H or OH if unused. Positions of bridges follow the written chain, without caps; N, C: chain ends. Non-standard residues stand in square brackets, D forms with d. Residues, ends and D or L forms follow the SMILES beside them. Chains are numbered I, II in the order given. *: point of attachment. TATA = O=C(CC[*:1])N1CN(C(=O)CC[*:2])CN(C(=O)CC[*:3])C1; Dolaproine = CO[C@@H]([C@@H]1CCCN1)[C@@H](C)C(=O)O; Dil = CC[C@H](C)[C@H](NC)[C@@H](CC(=O)O)OC; X2 = O=C(CCCC(=O)[*:2])NCCC(=O)[*:1]; PABC = O=C(OCc1ccc(N[*:1])cc1)[*:2]; X1 = C[C@@H](N*)[C@@H](O)c1ccccc1; Hyp = O=C(O)[C@@H]1C[C@@H](O)CN1; hArg = N=C(N)NCCCC[C@H](N)C(=O)O; Cit = NC(=O)NCCC[C@H](N)C(=O)O; Pen = CC(C)(S)[C@H](N)C(=O)O; NMeV = CN[C@H](C(=O)O)C(C)C; Sar = CNCC(=O)O

What was measured:
[1] = Pharmacokinetic analysis in rat plasma (6.1, 2 mg/kg); assay type: in vivo, SD rats; settings: rat, in vivo, SD rats, single IV 2 mg/kg, plasma
Procedure: (§1) Experimental purpose: To test the pharmacokinetics of the compounds of the present invention in SD rats.
(§2) 6.1 The pharmacokinetic characteristics of the compound after intravenous injection and oral administration were tested in rats according to a standard protocol. The compound to be tested was formulated into a clear solution using 50 mM acetate buffer (pH=5) in 10% sucrose as a vehicle. Two SD rats were given a single intravenous injection of 2 mg/kg of the compound to be tested. Whole blood was collected at time points of 0.083, 0.25, 0.5, 1, 2, 4, 8, and 24 hours after administration to get plasma. The concentration of the compound to be tested and the concentration of its potential metabolite MMAE were analyzed by the LC-MS/MS method, and the pharmacokinetic parameters were calculated by Phoenix WinNonlin software.

[2] = Pharmacokinetic analysis in rat plasma at different doses (6.2); assay type: in vivo, SD rats; settings: rat, in vivo, male SD rats
Procedure: as §1
as §2, with “6.2 The” for “6.1 The”, “vehicle. Three male” for “vehicle. Two”, “of 2.5 mg/kg, 3.75 mg/kg, or 5” for “of 2”, “1,” for “1, 2,”, “4,” for “4, 8,”, “were calculated.” for “were calculated by Phoenix WinNonlin software.”

Stability in whole blood = assay type: in vitro ADME, SD rats; settings: SD rat whole blood, 2 μM, 37° C.
Procedure: To test the stability of the compounds of the present invention in whole blood from SD rats and Cynomolgus macaques.
The corresponding incubation plates, including T0, T10, T30, T60, T120, and T240 incubation plates, were added with a 2 μL working solution of the compound to be tested (100 μM). Three parallel wells were prepared for each sample. Then, 98 μL of blank whole blood from SD rats and Cynomolgus macaques was added to the corresponding incubation plates to which the working solution had been added. All samples were incubated in a 37° C. water bath. […] At the end of each incubation time point, the corresponding incubation plate was removed, added with stop buffer, precipitated, and centrifuged for 20 minutes. Then, 100 μL of the supernatant was diluted with 300 μL of ultrapure water, mixed uniformly, and then analyzed by the LC-MS/MS method. The concentration of the compound to be tested in the sample was semi-quantitatively determined by the liquid chromatography-tandem mass spectrometry (LC-MS/MS) method.

[3] = Pharmacokinetic analysis in Cynomolgus macaque plasma; assay type: in vivo, Cynomolgus macaques; settings: cynomolgus monkey, in vivo, Cynomolgus macaques, single IV 1 mg/kg, plasma
Procedure: To test the pharmacokinetics of the compounds of the present invention in Cynomolgus macaques.
as §2, with “The pharmacokinetic” for “6.1 The pharmacokinetic”, “tested in Cynomolgus macaques according to” for “tested in rats according to”, “The compound of the present invention was formulated” for “The compound to be tested was formulated”, “vehicle. Two Cynomolgus macaques were given” for “vehicle. Two SD rats were given”, “injection of 1 mg/kg of” for “injection of 2 mg/kg of”

[4] = Metabolic stability in hepatocytes; assay type: in vitro ADME, Humans; settings: human hepatocytes, 1 μM, 0.5×10^6 cells/mL
Procedure: To investigate the metabolic stability of the compounds of the present invention in hepatocytes from Cynomolgus macaques and humans.
Incubations were performed in 96-well plates using an external extraction method. Several 96-well sample precipitation plates, designated T0, T15, T30, T60, T90, T0-MC, T90-MC, and blank matrix, were prepared, respectively. The recovery culture medium and incubation culture medium were removed in advance and placed in a 37° C. water bath for preheating. Frozen hepatocytes from Cynomolgus macaques and humans were removed from a liquid nitrogen tank, recovered, and diluted to 0.51×10^6 cells/mL with the incubation culture medium. […]
At the end of the incubation at the corresponding time point, the incubation plates were removed, from which 25 μL of a compound mixture with the cells was removed and added to sample plates containing 125 μL of stop buffer. […] All samples were mixed uniformly and then analyzed by the LC-MS/MS method.
The concentration of the compound of the present invention in the sample was semi-quantitatively determined by the liquid chromatography-tandem mass spectrometry (LC-MS/MS) method without a standard curve and quality control sample. […]

## CC[C@H](C)[C@@H]([C@@H](CC(=O)N1CCC[C@H]1[C@H](OC)[C@@H](C)C(=O)N[C@H](C)[C@@H](O)c1ccccc1)OC)N(C)C(=O)[C@@H](NC(=O)[C@H](C(C)C)N(C)C(=O)OCc1ccc(NC(=O)[C@H](CCCNC(N)=O)NC(=O)[C@@H](NC(=O)CCCC(=O)NCCC(=O)N(C)CC(=O)N(C)CC(=O)N(C)CC(=O)N(C)CC(=O)N(C)CC(=O)N(C)CC(=O)N(C)CC(=O)N(C)CC(=O)N(C)CC(=O)N(C)CC(=O)N[C@H]2CCCCNC(=O)C[C@@H](C(=O)N[C@H]3CSCCC(=O)N4CN5CN(C4)C(=O)CCSC(C)(C)[C@@H](C(N)=O)NC(=O)[C@H](CCCCNC(=N)N)NC(=O)[C@H](Cc4c[nH]c6ccccc46)NC(=O)[C@@H](CC(=O)O)NC(=O)[C@@H]4CCCN4C(=O)[C@H](Cc4c[nH]cn4)NC(=O)[C@H](CC(C)C)NC(=O)[C@H](CSCCC5=O)NC(=O)[C@H](CC(C)C)NC(=O)[C@@H]4CCCN4C(=O)[C@H](CC(N)=O)NC(=O)[C@H](C(C)C)NC(=O)[C@H](CC(C)C)NC(=O)[C@@H]4C[C@@H](O)CN4C3=O)NC(=O)[C@H](CCCCNC(=N)N)NC2=O)C(C)C)cc1)C(C)C [Acetate salt of PDC_8] (I: [Sar][Sar][Sar][Sar][Sar][Sar][Sar][Sar][Sar][Sar]K[hArg]DC[Hyp]LVNPLCLHP[dD]W[hArg][Pen]-NH2 / II: V[Cit][PABC][NMeV]V[Dil][Dolaproine]-X1; lactam I:11-I:13; linker I:14-I:21-I:28 via TATA; linker I:N-II:N via X2)
[1]
  AUC(0-t): 0.518 µM·h
  C0: 1670 nM
  clearance: 14.4 mL/min/kg
  half-life: 17.4 min
[1]; read-out: Vdss
  Vd: 0.28 L/kg
[2]; single IV 2.5 mg/kg
  AUC(0-t): 0.765 µM·h
  Cmax: 1960 nM
[2]; single IV 3.75 mg/kg
  AUC(0-t): 3.09 µM·h
  Cmax: 2750 nM
[2]; single IV 5 mg/kg
  AUC(0-t): 5.65 µM·h
  Cmax: 4590 nM
Stability in whole blood
  half-life: 559 min
[3]
  AUC(0-t): 0.651 µM·h
  C0: 2470 nM
  clearance: 5.72 mL/min/kg
  half-life: 18.6 min
[3]; read-out: Vdss
  Vd: 0.12 L/kg
[4]
  half-life: > 217 min
[4]; read-out: CLint (liver)
  CLint scaled: < 17.8 mL/min/kg
